Here are results for 15 molecules from patent US10618964B2, “Nanobody against IL-6R” (Ablynx N.V., dated 2020).

Some results are limits rather than exact numbers.

B1: IL6RPMP108E1 (VHH)
VHH: EVQLVESGGGLVQAGGSLRLSCAASGFTFDDYDIGWFRQAPGKEREGVSGISSSDGNTYYADSVKGRFTISSDNAKNTVYLQMNSLKPEDTAVYYCAAEPPDSSWYLDGSPEFFKYWGQGTQVTVSS
B2: IL6RPMP107A1 (VHH)
VHH: EVQLVESGGGLVQAGGSLNLSCNASGDIGSINAMGWYRQAPGQQREWVAVITDTDSTIYPDSVKGRFAISRDGAKNTVHLRMSSLKPEDTAVYYCNAYQAGWGDYWGQGTQVTVSS
B3: IL6RPMP106F7 (VHH)
VHH: EVQLVESEGGLVQAGGSLRLSCAASGSIFRINAMGWYRQAPGKQRELVAAAISGGSTNYADFVKGRFTISRDNAKNTVYLQMNSLKPEDTAVYYCNALVVSHNYSDYVPFPDDYWGQGTQVTVSS
B4: IL6RPMP120D2 (VHH)
VHH: EVQLVESGGGLVQAGGSLSLSCATSGRTISDDTMAWFRQAPGKEREFVATITFSGARTHYSDSVRDRFTISRDNAKNTVYLQMNSLKSEDTAVYYCAASTKYYSSTYNYIHPAFYDIWGQGTQVTVSS
B5: IL6RPMP100G11 (VHH)
VHH: EVQLVESGGGLVQAGGSLRLSCAASGRGFSPYTMGWFRQAPGKERVFVAGISWSTGIAHYTDSVKGRFTISRDNAKNTGSLQMNSLKPEDTAVYYCAVVQTTKGNYDYWGQGTQVTVSS
B6: IL6RPMP107A9 (VHH)
VHH: EVQLVESGGGLVQAGGSLRLSCAASGGIFSDMFMGWFRQAPGKSRESVARISPSGNTFYQDSVRGRFTISTDNAKNTVYLQMNNLKPEDTAVYYCAANVGVTGSYEYWGQGTQVTVSS
B7: IL6RPMP120G6 (VHH)
VHH: EVQLVESGGDLVQTGGSLRLSCAASGITVSDRAMGWYRQAPGKQREMVAGVSRGGMTSYADSVKGRLTISRDNAKNSVYLQMNSLNPEDTAVYYCSAYYRYGSSVPQYWGQGTQVTVSS
B8: IL6RPMP103H9 (VHH)
VHH: EVQLVESGGGLVQPGGSLRLSCAASKSIFDINAMYWHRQAPGKQRESVASITSGGMRNYADSVKDRFTISKDNAKNTVYLQMNGLKPDDTAVYYCGLGRYEGGVWRDYWGQGTQVTVSS
B9: IL6RPMP104B8 (VHH)
VHH: EVQLVESGGGLVQAGGSLRLSCAASGFAFDDYAIGWFRQAPGKEREGVSSISSSNGNTYYADSVRGRFTISSDNAKNTVYLQMNSLKPEDTGVYYCAAIWGIFFNEKMPVGAYDYWGQGTQVTVSS
B10: IL6RPMP103F2 (VHH)
VHH: EVQLVESGGGLVQAGGSLRLSCVASGHTSDTYIMAWFRQAPGKEREFVASILWDGSITYYADSVKDRFTISRDISRKTLYLQMNSLRPEDTATYTCARGIYFSRRYVDPGIYGTWGQGTQVTVSS
B11: IL6RPMP108E9 (VHH)
VHH: EVQLVESGGGLVQAGGSLRLSCAFSRRSFGNFPMGWFRQRPGEEREYVAVISWNNNYIHYRDSVKGRFTASRDTSENRMYLQMNGLKPEDTAVYYCAARTKDNTLFTPAEEYDYWGQGTQVTVSS
B12: IL6RPMP108C9 (VHH)
VHH: EVQLVESGGGLVQAGGSLRLSCAASGRTYAMAWFRQAPGKEREFVAAISIVTDYADSVKGRFNISRDNRENTVYLQMNSLKPEDTAVYYCAANTYYSGAYFPRGHEWYEYWGQGTQVTVSS
B13: IL6RPMP103C3 (VHH)
VHH: EVQLVESGGGLVQPGGSMRLSCAATGAIFSISTMGWYRQAPGAQREFVAGVGLDGTPNYADSVKGRFTISRDNTKNTVSLQMENLKPEDTGVYYCNIDEGMDYDGNFYDRWGQGTQVTVSS
B14: Reference Fab (Fab, V domains shown)
VH: QVQLQESGPGLVRPSQTLSLTCTVSGYSITSDHAWSWVRQPPGRGLEWIGYISYSGITTYNPSLKSRVTMLRDTSKNQFSLRLSSVTAADTAVYYCARSLARTTAMDYWGQGSLVTVSS
VL: DIQMTQSPSSLSASVGDRVTITCRASQDISSYLNWYQQKPGKAPKLLIYYTSRLHSGVPSRFSGSGSGTDFTFTISSLQPEDIATYYCQQGNTLPYTFGQGTKVEIKR
B15: Reference IgG (antibody, V domains shown)
VH: B14 VH
VL: B14 VL

For the first test, the target named is T1, native soluble IL-6R in human plasma (human, UniProt P08887). The test is described as follows: ELISA 1, periplasmic extract; competitor IL-6; human plasma.
Conditions: not given
As to B1, the OD450 ratio sample/blank was determined as 0.0894.
Turning to B2, the OD450 ratio sample/blank was 0.215.
The same measure, in the same setting: for B3 the value was 0.672; for B4, 0.659.
On the same count and under the same terms, for B5 the value was 1.71.
Same read-out and setting: for B6 the value was 1.08; for B7, 0.236; for B8, 1.59.
Consider B9, for which the OD450 ratio sample/blank was 1.46.

For another test, the target named is T2, soluble IL-6R in cynomolgous plasma (cynomolgus monkey, UniProt A0A2K5WN54). The experiment in a line: plasma potency ELISA, purified Nanobody; competitor IL-6; cyno plasma.
Conditions: not given
How it is done: (§1) In this ELISA, plasma was used as a source of native soluble IL-6R. By this assay, we aimed to confirm the alphascreen results and to get a view on the cross-reactivity of the clones towards cynomolgous IL-6R. Human plasma (ELISA 1 and ELISA 3) or cynomolgous plasma (ELISA 2) were pre-incubated with a dilution of the periplasmic extract of the clones together with human IL-6 (50 ng/mL). Subsequently, plasma soluble IL-6R was captured on a B-N12 coated plate and bound IL-6 was detected using anti-IL-6 antibody BAF206 and streptavidin-HRP (ELISA 1 and ELISA 2). The ELISA signal dropped when the Nanobody clone could compete with IL-6 for binding to soluble IL-6R. ELISA 3 was a parallel ELISA in which the detection antibody was replaced by anti-IL-6R antibody BAF227 to exclude false positive competitors, which actually compete with B-N12 (e.g. family 2). Depicted in Table C-5 is the ratio of the OD450 value of the test sample versus the blank OD450 (mock sample). Clones were ordered based on ELISA 1 data.
(§2) A potency ELISA was done with the purified Nanobodies as described in Example 9. Here, different dilutions of each purified Nanobody were incubated with human (ELISA1) and cynomolgous plasma (ELISA2). IC50 values are depicted in Table C-9.
The molecule B1 gave a half-inhibitory concentration (IC50) of 29.1 nM.
The same measure, in the same setting: for B2 the value was 47.8 nM.
B6 came in with a half-inhibitory concentration (IC50) of 4.7 nM.
The same measure, in the same setting: then B7, with 0.66 nM.
On the same count and under the same terms, for B8 the value was 14.8 nM; for B9, 252 nM.

Another test addresses T1, native soluble IL-6R in human plasma. The test is described as follows: ELISA 3, periplasmic extract; competitor BN-12; human plasma.
Conditions: not given
Background: An ELISA detects its analyte on a solid surface through an enzyme-linked reagent.
Take B1: the OD450 ratio sample/blank worked out at 0.954.
Same read-out and setting: for B2 the value was 0.967; for B3, 1.
In the case of B4, the OD450 ratio sample/blank turned out to be 0.993.
On the same count and under the same terms, then B5, with 0.997.
Same read-out and setting: for B6 the value was 0.992; for B7, 0.993; for B8, 0.99.
As for B9, the OD450 ratio sample/blank was 1.05.

In another test the target is T3, native soluble IL-6R in human plasma (human), P08887.
T3 chain: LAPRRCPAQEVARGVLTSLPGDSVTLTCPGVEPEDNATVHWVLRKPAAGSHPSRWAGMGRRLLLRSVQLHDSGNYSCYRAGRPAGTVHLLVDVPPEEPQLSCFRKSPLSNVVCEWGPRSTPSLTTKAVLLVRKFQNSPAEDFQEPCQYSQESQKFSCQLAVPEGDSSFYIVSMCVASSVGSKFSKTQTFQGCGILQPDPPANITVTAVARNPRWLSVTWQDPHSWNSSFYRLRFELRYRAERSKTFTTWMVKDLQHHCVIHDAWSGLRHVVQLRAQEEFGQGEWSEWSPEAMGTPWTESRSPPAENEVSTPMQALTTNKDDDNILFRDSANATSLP
The description is as above. As to conditions: remark: other sources report otherwise.
For the molecule B10, the OD450 ratio sample/blank came to 0.993.
Still for that read-out and setting: for B11 the value was 0.989; for B12, 1.01; for B13, 1.01.

The target of a further test is human IL-6R on CHO-K1 cells (clone HuIL6R 4D6) (human, UniProt P08887). The test is described as follows: FMAT competition; competitor Reference IgG-A647; CHO cells with human IL-6R.
Conditions: not given
Here is the method:
Eleven inhibitory Nanobodies were tested in competition with labelled Reference IgG for binding to CHO cells expressing hIL-6R or cynoIL-6R.
Take B8: the half-maximal inhibitory concentration (IC50) is above 50 nM.
Same read-out and setting: then B14, with 3.4 nM.

Another test deals with T1, native soluble IL-6R in human plasma. The experiment in a line: plasma potency ELISA, purified Nanobody; competitor IL-6; human plasma.
Conditions: not given
How it is done: as §1, §2
Regarding B1, the IC50 worked out at 0.15 nM.
The same measure, in the same setting: for B2 the value was 0.38 nM.
Consider B6, for which the concentration for half-maximal inhibition (IC50) amounted to 3.5 nM.
Same read-out and setting: then B7, with 1.12 nM.
The same measure, in the same setting: then B8, with 37.9 nM.
Same read-out and setting: then B9, with 7.8 nM.

Another test concerns the target T2, soluble IL-6R in cynomolgous plasma. The test is described as follows: ELISA 2, periplasmic extract; competitor IL-6; cyno plasma.
Conditions: not given
As to B10, the OD450 ratio sample/blank amounted to 1.09.
On the same count and under the same terms, for B1 the value was 0.359; for B2, 0.292; for B3, 1.
The same measure, in the same setting: for B4 the value was 0.158; for B5, 0.202; for B6, 0.0867.
As to B7, the OD450 ratio sample/blank came to 0.0289.
Take B8: the OD450 ratio sample/blank was found to be 0.263.
Same read-out and setting: then B9, with 0.735; and B11, with 0.961; and B12, with 0.907.
The same measure, in the same setting: then B13, with 1.1.

The target of a further test is T3, native soluble IL-6R in human plasma …. The experiment in a line: ELISA 1, periplasmic extract; competitor IL-6; human plasma. Particulars: remark: other sources report otherwise.
As to B10, the OD450 ratio sample/blank is 1.95.
On the same count and under the same terms, then B11, with 0.731.
The same measure, in the same setting: for B12 the value was 0.911; for B13, 2.02.

For a further test, the target named is IL-6R on TF-1 cells (Homo sapiens (Human), UniProt P08887). The experiment in a line: cell-based or functional assay.
Conditions: not given
As to B1, the “IC50, IL-6-dependent proliferation of TF-1 cells (3H-thymidine)” value came out at 0.149 nM.
On the same count and under the same terms, for B2 the value was 4.05 nM; for B5, 116 nM.
On the same count and under the same terms, for B6 the value was 349 nM; for B7, 10.2 nM.
The same measure, in the same setting: for B8 the value was 1470 nM.
B9: the “IC50, IL-6-dependent proliferation of TF-1 cells (3H-thymidine)” value stood at 245 nM.
Same read-out and setting: for B15 the value was 0.53 nM.

A word on the IC50: it is the concentration that inhibits the measured activity by half.
